This passage reports stoichiometry N results from PMC11686999.

Broadly, the stoichiometry N is a count of units in the complex or per binding partner.

This experiment concerns the target Pyruvate kinase M2 (PKM2) (human (endogenous in HCT116 and RKO)) (UniProt P14618). Put plainly: cross-linking.

Sequence of Pyruvate kinase M2 (PKM2), P14618 1-531 (natural protein; other documents disagree on this pair) (P14618 whole entry): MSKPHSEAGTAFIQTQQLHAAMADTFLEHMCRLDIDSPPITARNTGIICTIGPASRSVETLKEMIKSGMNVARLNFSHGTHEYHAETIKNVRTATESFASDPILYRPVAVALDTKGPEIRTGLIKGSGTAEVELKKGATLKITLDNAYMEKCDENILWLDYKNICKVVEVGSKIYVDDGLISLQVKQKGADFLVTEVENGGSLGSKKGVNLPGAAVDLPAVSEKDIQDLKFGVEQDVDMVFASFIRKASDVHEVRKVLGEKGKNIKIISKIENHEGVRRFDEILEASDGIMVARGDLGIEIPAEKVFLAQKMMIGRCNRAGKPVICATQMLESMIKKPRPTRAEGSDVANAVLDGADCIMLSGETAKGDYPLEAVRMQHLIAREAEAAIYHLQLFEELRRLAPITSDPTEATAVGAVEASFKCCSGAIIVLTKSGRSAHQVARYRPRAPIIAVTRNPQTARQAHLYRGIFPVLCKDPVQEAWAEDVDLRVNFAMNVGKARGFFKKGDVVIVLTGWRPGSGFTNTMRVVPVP

Substance “Pyruvate kinase M2 (PKM2), P14618 1-531 (natural protein; other documents disagree on this pair)” displayed a stoichiometry N of 2.
